The target in assay [1] is T1, recombinant murine transferrin receptor 1 (mTfR1), extracellular domain fused to a His-tag (murine, UniProt Q62351 89-763).
T1 construct: Position of the His-tag (N or C) unknown; also called recombinant mTfR1; murine TfR1; not shown: His-tag
In words: BLI (Octet), mTfR1 captured on biotinylated human holo-transferrin on streptavidin sensors. As for the experimental part:
Binding of expressed constructs to mTfR1 was assessed by Bio-Layer Interferometry (Octet RED384, ForteBio). High-precision streptavidin sensors were loaded in two consecutive steps: first with 20 μg/ml of biotinylated human holo-transferrin (Sigma) during 180 s and then with 20 μg/ml recombinant mTfR1, produced as described in Example 4, during 180 s. Thereafter, association of the samples to the loaded sensors was measured for 120 s, followed by dissociation for 300 s. Binding was analyzed with samples diluted to 17.5 μg/ml for mAb158-scLc-8D3-Ig.1 and mAb158-scLc-8D3-Ig.2, to 18 μg/ml for mAb158-scLc-8D3-Ig.3 and to 4.9 μg/ml for 8D3 Fab (corresponding to 100 nM of respective binding molecule). The response from a buffer sample was subtracted. All samples were diluted in 1× Kinetics buffer (ForteBio). The same buffer was used for baseline and dissociation steps. […] As controls, the 8D3 Fab and the antibody mAb158 IgG were included.
For orientation: BLI is a label-free optical method that tracks binding on a fibre tip over time.

Assay [2] deals with T1, recombinant murine transferrin receptor …. In words: indirect ELISA, plates coated with recombinant mTfR1. Here is the method: Binding of selected expressed constructs to mTfR1 was assessed by indirect ELISA (FIG. 4). In brief, half area 96-well plates (Corning, #3690) were coated with 1 μg/ml recombinant mTfR1, produced as described in Example 4, in PBS overnight at 4° C. The coated plates were blocked using Pierce protein-free blocking solution (Thermo Fisher Scientific, #37572) for 1 h at room temperature with shaking and washed four times in PBS containing 0.1% TWEEN-20. Serial dilutions (1:3) of expressed constructs in incubation buffer (1% BSA, 0.1% TWEEN-20 in PBS) were incubated for 1 h at room temperature. Following the four wash steps, bound test constructs were detected by addition of anti-mouse-IgG F(ab′)2-HRP antibody (Jackson Immuno Research, #115-035-006) at 1:1250 dilution in incubation buffer (1 h, room temperature). Following four wash steps, K-Blue® Aqueous TMB substrate (Neogen, #331177) was added to the wells for 15 min at room temperature before the reaction was stopped with 1:1 dilution of 0.5 M H₂SO₄. The optical density at 450 nm was recorded (Spark, Tecan) and background signal was subtracted before analysis.

For assay [3], the target named is T2, mTfR1 expressed on cell surfaces of Immortalized Mouse Cerebral Capillary Endothelial Cells (cEND) (mouse, UniProt Q62351 1-763).
T2 construct: whole, on cells; also called mTfR1 on cEND cells
T2 sequence (Q62351 whole entry): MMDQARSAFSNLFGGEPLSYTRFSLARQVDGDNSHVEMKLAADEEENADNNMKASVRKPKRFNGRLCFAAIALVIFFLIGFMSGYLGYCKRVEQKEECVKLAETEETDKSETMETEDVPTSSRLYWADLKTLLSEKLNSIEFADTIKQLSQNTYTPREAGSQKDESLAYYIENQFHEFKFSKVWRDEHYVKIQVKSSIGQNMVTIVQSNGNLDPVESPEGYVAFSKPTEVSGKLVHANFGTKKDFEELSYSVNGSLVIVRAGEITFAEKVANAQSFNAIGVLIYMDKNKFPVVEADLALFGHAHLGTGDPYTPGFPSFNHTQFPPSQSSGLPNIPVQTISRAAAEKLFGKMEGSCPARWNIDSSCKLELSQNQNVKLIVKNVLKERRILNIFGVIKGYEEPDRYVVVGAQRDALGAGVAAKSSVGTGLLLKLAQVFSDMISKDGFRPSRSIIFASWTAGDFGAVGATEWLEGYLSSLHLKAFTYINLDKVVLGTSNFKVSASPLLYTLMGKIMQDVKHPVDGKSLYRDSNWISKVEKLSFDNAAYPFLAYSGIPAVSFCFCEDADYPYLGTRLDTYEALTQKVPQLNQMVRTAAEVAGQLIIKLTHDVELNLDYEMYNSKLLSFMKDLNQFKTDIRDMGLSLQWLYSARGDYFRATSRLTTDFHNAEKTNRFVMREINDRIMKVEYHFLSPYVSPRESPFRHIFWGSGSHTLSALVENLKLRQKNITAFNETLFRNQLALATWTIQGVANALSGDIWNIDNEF
In words: flow cytometry on cEND cells, 100 nM, 4° C., anti-mouse IgG-PE. Here is the method:
Binding and uptake mediated by TfR1 was measured on Immortalized Mouse Cerebral Capillary Endothelial Cells (cEND) (ABM, #T0290).
The pellet was resuspended in PBS and 200,000 cells per well were seeded in U-bottom 96-well Corning plates for flow cytometry staining. Cells were then washed with PBS and incubated with 100 nM of one of the mAb158-8D3 constructs mAb158-scLc-8D3-Ig.1, mAb158-scLc-8D3-Ig.2 and mAb158-scLc-8D3-Ig.3, control 8D3 IgG (light chain of SEQ ID NO:17, heavy chain of SEQ ID NO:19) or murine IgG control for 45 min at 4° C. After primary incubation, cells were washed twice with ice cold PBS, and mAb158-8D3 constructs were captured using a fluorescently labeled secondary anti-mouse IgG-PE antibody (BD Biosciences, 550589). After incubation, cells were washed twice with PBS and resuspended in 200 μl PBS. Cells were acquired in a BD FACSLyric flow cytometer system (BD Biosciences) and samples were analyzed using FCS Express software (De Novo Software).
(A flow cytometer gives signals particle by particle.)

The target of a further assay is T3, recombinant Aβ1-42.
T3 construct: Coated at 0.5 µg/ml on ELISA plates; also called Amyloid Beta (Aβ1-42)
T3 sequence (peptide, as listed by the source): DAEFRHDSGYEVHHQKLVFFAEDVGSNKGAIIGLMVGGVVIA
In words: indirect ELISA, plates coated with recombinant Aβ1-42. (In general: In an ELISA, binding on a coated surface is turned into a signal by an enzyme label.)

In assay [4] the target is T1, recombinant murine transferrin receptor …. In words: BLI (Octet), mTfR1 captured on holo-transferrin sensors, analyte 50 nM.

T1 sequence (Q62351 89-763): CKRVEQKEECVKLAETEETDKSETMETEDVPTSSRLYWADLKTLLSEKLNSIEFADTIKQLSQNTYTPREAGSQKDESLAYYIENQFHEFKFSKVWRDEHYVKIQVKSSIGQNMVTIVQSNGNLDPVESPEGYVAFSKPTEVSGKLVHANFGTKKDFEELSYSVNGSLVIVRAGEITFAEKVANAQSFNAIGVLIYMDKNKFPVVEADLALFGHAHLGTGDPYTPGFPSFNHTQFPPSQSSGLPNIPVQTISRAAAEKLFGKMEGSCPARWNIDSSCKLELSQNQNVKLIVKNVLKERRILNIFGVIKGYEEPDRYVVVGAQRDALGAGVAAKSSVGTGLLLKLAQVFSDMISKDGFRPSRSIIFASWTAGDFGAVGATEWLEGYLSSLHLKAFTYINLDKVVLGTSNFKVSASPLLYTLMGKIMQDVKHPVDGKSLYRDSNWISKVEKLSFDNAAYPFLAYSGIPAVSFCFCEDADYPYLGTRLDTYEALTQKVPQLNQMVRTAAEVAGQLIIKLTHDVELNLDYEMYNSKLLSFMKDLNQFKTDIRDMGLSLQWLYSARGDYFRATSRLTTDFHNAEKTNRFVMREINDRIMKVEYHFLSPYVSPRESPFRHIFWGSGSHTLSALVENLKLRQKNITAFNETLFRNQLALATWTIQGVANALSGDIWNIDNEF

B1: mAb158-scLc-8D3-Ig.5 (bispecific antibody, human IgG1, kappa)
heavy: not shown
chain: DIVMTQAPLSLPVSLGDQASISCRSSQSIVHSNGNTYLEWYLQKPGQSPKLLIYKVSNRFSGVPDRFSGSGSGTDFTLKISRVEAEDLGIYYCFQGSHVPPTFGGGTKLEIKRADAAPTVSIFPPSSEQLTSGGASVVCFLNNFYPKDINVKWKIDGSERQNGVLNSWTDQDSKDSTYSMSSTLTLTKDEYERHNSYTCEATHKTSTSPIVKSFNRNECGGGGSGGGGSGGGGSGGGGSGGGGSGGGGSGGGGSGGGGSGGGGSGGGGSDIVMTQAPLSLPVSLGDQASISCRSSQSIVHSNGNTYLEWYLQKPGQSPKLLIYKVSNRFSGVPDRFSGSGSGTDFTLKISRVEAEDLGIYYCFQGSHVPPTFGGGTKLEIKRADAAPTVSIFPPSSEQLTSGGASVVCFLNNFYPKDINVKWKIDGSERQNGVLNSWTDQDSKDSTYSMSSTLTLTKDEYERHNSYTCEATHKTSTSPIVKSFNRNECGGGGSGGGGSGGGGSEVQLVESGGGLVQPGNSLTLSCVASGFTFSNYGMHWIRQAPKKGLEWIAMIYYDSSKMNYADTVKGRFTISRDNSKNTLYLEMNSLRSEDTAMYYCAVPTSHYVVDVWGQGVSVTVSSGGGGSGGGGSGGGGSDIQMTQSPASLSASLEEIVTITCQASQDIGNWLAWYQQKPGKSPQLLIYGATSLADGVPSRFSGSRSGTQFSLKISRVQVEDIGIYYCLQAYNTPWTFGGGTKLELKR
notes: Format [LC-L1-LC-L2-scBM]
In the case of B1, the binding result in assay [1] is on record as “binds”.

B2: mAb158-scLc-8D3-Ig.1 (bispecific antibody, human IgG1, kappa)
heavy: not shown
chain: DIVMTQAPLSLPVSLGDQASISCRSSQSIVHSNGNTYLEWYLQKPGQSPKLLIYKVSNRFSGVPDRFSGSGSGTDFTLKISRVEAEDLGIYYCFQGSHVPPTFGGGTKLEIKRADAAPTVSIFPPSSEQLTSGGASVVCFLNNFYPKDINVKWKIDGSERQNGVLNSWTDQDSKDSTYSMSSTLTLTKDEYERHNSYTCEATHKTSTSPIVKSFNRNECGGGGSGGGGSGGGGSEVQLVESGGGLVQPGNSLTLSCVASGFTFSNYGMHWIRQAPKKGLEWIAMIYYDSSKMNYADTVKGRFTISRDNSKNTLYLEMNSLRSEDTAMYYCAVPTSHYVVDVWGQGVSVTVSSGGGGSGGGGSGGGGSDIQMTQSPASLSASLEEIVTITCQASQDIGNWLAWYQQKPGKSPQLLIYGATSLADGVPSRFSGSRSGTQFSLKISRVQVEDIGIYYCLQAYNTPWTFGGGTKLELKRGGSSGSGSGSTGTSSSGTGTSAGTTGTSASTSGSGSDIVMTQAPLSLPVSLGDQASISCRSSQSIVHSNGNTYLEWYLQKPGQSPKLLIYKVSNRFSGVPDRFSGSGSGTDFTLKISRVEAEDLGIYYCFQGSHVPPTFGGGTKLEIKRADAAPTVSIFPPSSEQLTSGGASVVCFLNNFYPKDINVKWKIDGSERQNGVLNSWTDQDSKDSTYSMSSTLTLTKDEYERHNSYTCEATHKTSTSPIVKSFNRNEC
With B2, the binding result in assay [2] and in assay [3] was “binds” in each case.

B3: mAb158-scLc-8D3-Ig.4 (bispecific antibody, human IgG1, kappa)
heavy: not shown
chain: DIVMTQAPLSLPVSLGDQASISCRSSQSIVHSNGNTYLEWYLQKPGQSPKLLIYKVSNRFSGVPDRFSGSGSGTDFTLKISRVEAEDLGIYYCFQGSHVPPTFGGGTKLEIKRADAAPTVSIFPPSSEQLTSGGASVVCFLNNFYPKDINVKWKIDGSERQNGVLNSWTDQDSKDSTYSMSSTLTLTKDEYERHNSYTCEATHKTSTSPIVKSFNRNECGGGGSGGGGSGGGGSGGGGSGGGGSGGGGSDIVMTQAPLSLPVSLGDQASISCRSSQSIVHSNGNTYLEWYLQKPGQSPKLLIYKVSNRFSGVPDRFSGSGSGTDFTLKISRVEAEDLGIYYCFQGSHVPPTFGGGTKLEIKRADAAPTVSIFPPSSEQLTSGGASVVCFLNNFYPKDINVKWKIDGSERQNGVLNSWTDQDSKDSTYSMSSTLTLTKDEYERHNSYTCEATHKTSTSPIVKSFNRNECGGGGSGGGGSGGGGSEVQLVESGGGLVQPGNSLTLSCVASGFTFSNYGMHWIRQAPKKGLEWIAMIYYDSSKMNYADTVKGRFTISRDNSKNTLYLEMNSLRSEDTAMYYCAVPTSHYVVDVWGQGVSVTVSSGGGGSGGGGSGGGGSDIQMTQSPASLSASLEEIVTITCQASQDIGNWLAWYQQKPGKSPQLLIYGATSLADGVPSRFSGSRSGTQFSLKISRVQVEDIGIYYCLQAYNTPWTFGGGTKLELKR
notes: Format [LC-L1-LC-L2-scBM]
As to B3, in assay [1], the binding result is recorded as “binds”.

B4: mAb158-scLc-Ig.6 (antibody, human IgG1, kappa)
heavy: not shown
chain: DIVMTQAPLSLPVSLGDQASISCRSSQSIVHSNGNTYLEWYLQKPGQSPKLLIYKVSNRFSGVPDRFSGSGSGTDFTLKISRVEAEDLGIYYCFQGSHVPPTFGGGTKLEIKRADAAPTVSIFPPSSEQLTSGGASVVCFLNNFYPKDINVKWKIDGSERQNGVLNSWTDQDSKDSTYSMSSTLTLTKDEYERHNSYTCEATHKTSTSPIVKSFNRNECGGGGSGGGGSGGGGSGGGGSGGGGSGGGGSGGGGSGGGGSGGGGSGGGGSDIVMTQAPLSLPVSLGDQASISCRSSQSIVHSNGNTYLEWYLQKPGQSPKLLIYKVSNRFSGVPDRFSGSGSGTDFTLKISRVEAEDLGIYYCFQGSHVPPTFGGGTKLEIKRADAAPTVSIFPPSSEQLTSGGASVVCFLNNFYPKDINVKWKIDGSERQNGVLNSWTDQDSKDSTYSMSSTLTLTKDEYERHNSYTCEATHKTSTSPIVKSFNRNEC
As to B4, in assay [1], the binding result is given as “no binding”.

B5: mAb158-scLc-8D3-Ig.15 (bispecific antibody, human IgG1, kappa)
heavy: not shown
chain: DIVMTQAPLSLPVSLGDQASISCRSSQSIVHSNGNTYLEWYLQKPGQSPKLLIYKVSNRFSGVPDRFSGSGSGTDFTLKISRVEAEDLGIYYCFQGSHVPPTFGGGTKLEIKRADAAPTVSIFPPSSEQLTSGGASVVCFLNNFYPKDINVKWKIDGSERQNGVLNSWTDQDSKDSTYSMSSTLTLTKDEYERHNSYTCEATHKTSTSPIVKSFNRNECGGGGSGGGGSGGGGSGGGGSGGGGSDIQMTQSPASLSASLEEIVTITCQASQDIGNWLAWYQQKPGKSPQLLIYGATSLADGVPSRFSGSRSGTQFSLKISRVQVEDIGIYYCLQAYNTPWTFGGGTKLELKRGGGGSGGGGSGGGGSEVQLVESGGGLVQPGNSLTLSCVASGFTFSNYGMHWIRQAPKKGLEWIAMIYYDSSKMNYADTVKGRFTISRDNSKNTLYLEMNSLRSEDTAMYYCAVPTSHYVVDVWGQGVSVTVSSGGGGSGGGGSGGGGSGGGGSDIVMTQAPLSLPVSLGDQASISCRSSQSIVHSNGNTYLEWYLQKPGQSPKLLIYKVSNRFSGVPDRFSGSGSGTDFTLKISRVEAEDLGIYYCFQGSHVPPTFGGGTKLEIKRADAAPTVSIFPPSSEQLTSGGASVVCFLNNFYPKDINVKWKIDGSERQNGVLNSWTDQDSKDSTYSMSSTLTLTKDEYERHNSYTCEATHKTSTSPIVKSFNRNEC
notes: Format [LC-L1-scBM-L2-LC]; also called mAb158-scLc-Ig.15
As to B5, the binding result (with recombinant Aβ1-42; in assay [4]) was “binds” throughout.

B6: mAb158 IgG (antibody, V domains shown)
VH: EVKLMESGGGLVQPGGSRKLSCAASGFTFSSFGMHWVRQAPEKGLEWVAYISSGSSTIYYGDTVKGRFTISRDNPKNTLFLQMTSLRSEDTAMYYCAREGGYYYGRSYYTMDYWGQGTSVTVSS
VL: DIVMTQAPLSLPVSLGDQASISCRSSQSIVHSNGNTYLEWYLQKPGQSPKLLIYKVSNRFSGVPDRFSGSGSGTDFTLKISRVEAEDLGIYYCFQGSHVPPTFGGGTKLEIKR
notes: also called unmodified mAb158 IgG control; unmodified mAb158 control
In the case of B6, the binding result in assay [1] is “no binding (tested: 50 nM)”.
